Results from patent US20100004429A1.

Target: human thrombopoietin receptor (human c-Mpl) (human) (UniProt P40238)
Test: cell-based or functional assay

UT7/TPO (Max): 100%
Substance: PEG-rHuMGDF (pegylated recombinant human megakaryocyte proliferation and development factor) (from UniProt P40225 22-184) (ligand)
